Results reported in patent US20240132485A1, “HETEROCYCLIC CULLIN RING UBIQUITIN LIGASE COMPOUNDS AND USES THEREOF” (CEMM - FORSCHUNGSZENTRUM FÜR MOLEKULARE MEDIZIN GMBH, priority 2020, published 2024).

Legend:
[1] = biological target: Nanoluc_DDB1 (N-terminal Nanoluc luciferase, G4S linker, DDB1 (FL)) (UniProt Q16531); assay: NanoBRET in HEK293T cells, 10 µM compound Example 3-40; class B = 3-4 fold increase
[2] = biological target: Nanoluc_DDB1 (N-terminal Nanoluc luciferase, G4S linker, DDB1 (FL)) (UniProt Q16531); assay: NanoBRET in HEK293T cells, 10 µM compound Example 3-61; class A = greater than 4-fold increase
[3] = biological target: Nanoluc_DDB1 (N-terminal Nanoluc luciferase, G4S linker, DDB1 (FL)) (UniProt Q16531); assay: NanoBRET in HEK293T cells, 10-point titration of compound Example 3-3; class E = >10 µM
[4] = biological target: Nanoluc_DDB1 (N-terminal Nanoluc luciferase, G4S linker, DDB1 (FL)) (UniProt Q16531); assay: NanoBRET in HEK293T cells, 10 µM compound Example 3-54; class C = 2-3 fold increase
[5] = biological target: Nanoluc_DDB1 (N-terminal Nanoluc luciferase, G4S linker, DDB1 (FL)) (UniProt Q16531); assay: NanoBRET in HEK293T cells, 10 µM compound Example 3-30; class C = 2-3 fold increase

Nanoluc_DDB1 (N-terminal Nanoluc luciferase, G4S linker, DDB1 (FL)), sequence (Q16531 other isoform, or with tags, fused parts or gaps): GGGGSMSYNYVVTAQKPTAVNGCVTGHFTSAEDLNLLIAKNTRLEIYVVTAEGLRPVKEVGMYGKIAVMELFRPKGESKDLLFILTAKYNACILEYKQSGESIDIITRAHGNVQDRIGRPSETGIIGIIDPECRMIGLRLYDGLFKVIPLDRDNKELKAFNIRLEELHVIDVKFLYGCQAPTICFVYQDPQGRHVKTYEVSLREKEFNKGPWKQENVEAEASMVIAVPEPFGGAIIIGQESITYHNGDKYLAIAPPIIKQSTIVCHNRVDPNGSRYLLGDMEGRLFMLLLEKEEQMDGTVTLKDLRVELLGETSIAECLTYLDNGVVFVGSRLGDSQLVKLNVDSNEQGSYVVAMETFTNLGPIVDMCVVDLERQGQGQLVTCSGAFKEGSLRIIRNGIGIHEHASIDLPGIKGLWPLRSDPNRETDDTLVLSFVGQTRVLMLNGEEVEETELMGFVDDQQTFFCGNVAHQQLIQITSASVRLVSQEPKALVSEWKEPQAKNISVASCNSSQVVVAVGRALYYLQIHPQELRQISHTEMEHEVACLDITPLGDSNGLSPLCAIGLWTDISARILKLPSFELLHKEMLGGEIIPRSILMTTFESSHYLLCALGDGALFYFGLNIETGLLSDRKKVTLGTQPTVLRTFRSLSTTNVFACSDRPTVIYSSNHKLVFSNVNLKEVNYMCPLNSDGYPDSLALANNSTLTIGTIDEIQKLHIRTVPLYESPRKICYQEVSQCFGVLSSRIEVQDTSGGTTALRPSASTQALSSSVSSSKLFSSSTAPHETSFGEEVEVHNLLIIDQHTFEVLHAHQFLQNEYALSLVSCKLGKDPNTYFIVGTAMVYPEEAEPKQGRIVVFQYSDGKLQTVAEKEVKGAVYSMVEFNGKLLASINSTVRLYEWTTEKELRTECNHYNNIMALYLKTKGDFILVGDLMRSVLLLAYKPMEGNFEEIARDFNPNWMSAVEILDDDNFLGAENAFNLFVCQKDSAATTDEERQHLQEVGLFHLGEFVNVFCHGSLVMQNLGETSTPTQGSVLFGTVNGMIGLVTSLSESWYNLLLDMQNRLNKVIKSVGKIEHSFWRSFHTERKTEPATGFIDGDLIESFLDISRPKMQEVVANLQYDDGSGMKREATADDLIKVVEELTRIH

Work on “HaloTag_CDK12 (N-terminal HaloTag, G4S linker, CDK12 (713-1052)) (from UniProt Q9NYV4 713-1052) (enzyme)” yielded a NanoBRET fold increase [1] of 3 to 4 fold, a NanoBRET fold increase [2] of over 4 fold and an EC50 [3] of over 10 µM. It also gave a NanoBRET fold increase [4] of 2 to 3 fold and a NanoBRET fold increase [5] of 2 to 3 fold.
